The record followed here is patent US20210009686A1 (BEIJING XUANYI PHARMASCIENCES, published 2021).

Numbering of substitutions follows the chain as printed.

Experiment [1] concerns the target T1, claudin 18.2 (CLDN18.2) (human).
T1 construct: also called Claudin 18 isotype 2; HEK293-CLDN18.2
The experiment can be described thus: in-cell ELISA, hybridoma supernatant on HEK293-CLDN18.2 cells.
Procedure: (§1) In-cell ELISAs were performed as follows: 5×10³ HEK293-CLDN18.2 cells were seeded per well in a poly-L-lysine-coated 96-well plate. The plates were then incubated at 37° C. with 5% CO₂ for 2 days. Following incubation, culture media was removed from each well, and the HEK293-CLDN18.2 cells were blocked with 200 μl blocking buffer (3% BSA/PBS (pH 7.4)) per well for 1 hour at room temperature. Each hybridoma supernatant was incubated with cells at room temperature for 1 hour. Cells were gently washed 3 times with 200 μl PBS (pH 7.4) containing 1 mM Ca²⁺ and 0.5 mM Mg²⁺. Next, cells were incubated with 100 μl of HRP-conjugated goat anti-human IgG (H+L) antibody for 1 hour at room temperature. Following the incubation, the cells were washed three times with 200 μl PBS (pH 7.4) containing 1 mM Ca²⁺ and 0.5 mM Mg²⁺. 100 μl of 1-Step™ Ultra TMB-ELISA Substrate was added to each well, and the reactions were stopped by addition of 50 μl of stop solution. OD₄₅₀ was measured using CLARIOStar microplate reader. The in-cell ELISAs were repeated for each clone using HEK293-CLDN18.1 cells.

Experiment [2] concerns the target T1, claudin 18.2 (CLDN18.2). The experiment can be described thus: FACS, hybridoma supernatant on HEK293-CLDN18.2.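 Further: flow cytometry of hybridoma supernatants taken 10 days after fusion, applied to HEK293 cells stably expressing CLDN18.2, with MFI standing for mean fluorescence intensity.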
Source text: (§2) Ten days after fusion, hybridoma supernatants were screened by FACS against HEK293-CLDN18.2, HEK293-CLDN18.1 and HEK293.
The target of experiment [3] is T2, claudin 18.1 (CLDN18.1) (human, UniProt P56856 1-261).
T2 construct: also called HEK293-CLDN18.1
T2 sequence (P56856 whole entry): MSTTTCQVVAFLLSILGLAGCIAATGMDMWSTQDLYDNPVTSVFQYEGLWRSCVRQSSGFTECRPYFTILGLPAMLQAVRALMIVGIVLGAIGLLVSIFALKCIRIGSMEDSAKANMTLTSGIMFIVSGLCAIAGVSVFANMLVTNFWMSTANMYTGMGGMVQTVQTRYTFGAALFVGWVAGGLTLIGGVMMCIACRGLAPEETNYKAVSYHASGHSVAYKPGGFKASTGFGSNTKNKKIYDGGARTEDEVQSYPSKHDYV
In words: in-cell ELISA, hybridoma supernatant on HEK293-CLDN18.1 cells. Background: An ELISA detects its analyte on a solid surface through an enzyme-linked reagent.
Procedure: as §1

Experiment [4] concerns the target T2, claudin 18.1 (CLDN18.1). In words: FACS, hybridoma supernatant on HEK293-CLDN18.1. (In general: A flow cytometer gives signals particle by particle.)
Source text: as §2
The target in experiment [5] is T1, claudin 18.2 (CLDN18.2). In words: FACS, HEK293-CLDN18.2 cells.
Procedure: The interaction of 20 purified chimeric antibodies with CLDN18.2 was assessed by in-cell ELISAs and FACS using HEK293-CLDN18.2 cells. […] The FACS assays were performed as follows: Serial dilutions for each antibody clone shown in Tables 7 and 8 were prepared and stained with HEK293-CLDN18.2 cells on ice for 30 min, with final antibody concentrations of 10 g/ml, 3 g/ml, 1 g/ml, 0.3 μg/ml, 0.1 μg/ml, 0.03 μg/ml, 0.01 μg/ml, and 0 μg/ml. […] Cells were washed, and analyzed by FACS.
For experiment [6], the target named is T1, claudin 18.2 (CLDN18.2). The experiment can be described thus: in-cell ELISA, HEK293-CLDN18.2 cells.
Procedure: as §1
The in-cell ELISAs were performed as described above. […] Cells were washed, and analyzed by FACS.

B1: hybridoma clone 10-P12-A (antibody, V domains shown)
VH: EIQLQQSGAELVKPGTSVKISCKASGYSFTGYNMNWVKQSHGKSLEWIGNINPYYSNTNYNQRFKGKATLTVDKSSSTAYMQLNSLTSEDSAVYYCARHVRGNSFDYWGQGTTLTVSS
VL: DIVMTQSPSSLTVTAGERVTVGCKSRQSLFNSENQKNYLSWYQQKPGQPPKLLLYWTSTRESGVPERFTGSGSGTDFTLTISSVQAEDLAVYYCQNNYIYPFTFGSGTKLEIK
In the case of B1, the “OD450/µg IgG” value in the experiment with claudin 18.2 (CLDN18.2) [1] is 29.4 OD450/µg IgG; with claudin 18.1 (CLDN18.1) [3] it was 4.3 OD450/µg IgG. For the same molecule, the MFI in the experiment with claudin 18.2 (CLDN18.2) [2] was 131000; with claudin 18.1 (CLDN18.1) [4] it was 20100.

B2: chimeric Ab 1-B13-A (antibody, V domains shown)
VH: QVQLQQSGAELARPGASVKLSCKASGYTFTVWSMSWVKQRTGQGLQWIGEIYPKSGNTHYNEKFKGKATLTADKSSSTVYMQLSSLTSEDSAVYFCARAYYGNSFAYWGQGTLVTVPA
VL: DIVMTQSPSPLTVTAGEKATMSCKSSQSLLNSGNQRNYLTWYQQKPGQPPKLLIYWASTRESGVPDRFTGSGSGTDFSLTISSVQAEDLAVYYCQNDFIYPFTFGSGTKLEIK
B2: the EC50 (as a rule, the concentration that produces a half-maximal response) in the experiment with claudin 18.2 (CLDN18.2) [5] is 0.036 µg/mL; with claudin 18.2 (CLDN18.2) [6] it was 0.059 µg/mL.

B3: chimeric Ab 4-N1-A (antibody, V domains shown)
VH: EVQLVNSGGGLVKPGGSRKLSCAASGFTFSDYGMHWVRQAPEKGLEWVAYISSGSSTIYYADTMKGRFTISRDNAKNTLFLQMTSLRSEDTAMYYCARFVRGNSMDYWGQGTSVTVSS
VL: DIVMTQSPSSLTVTAGEKVTMSCKSSQSLLNSGNQKNYLTWYQQKPGQPPKLLIYWASTRESGVPDRFTGSGSGTDFTLTISSVQAEDLTVYYCQNAYSYPLTFGAGTKLELK
Regarding B3, the EC50 with claudin 18.2 (CLDN18.2) [5] turned out to be 0.029 µg/mL; in the experiment with claudin 18.2 (CLDN18.2) [6] it was 0.059 µg/mL.

B4: hybridoma clone 2-D22-A (antibody, V domains shown)
VH: EVQLVESGGGLVKPGGSRKLSCAASGFTFSDYGMHWVRQAPEKGLEWIAYISSGSSSIYYADTVKGRFTMSRDNAKKTLFLQTTSLRSEDTAMYYCARIARGNAMDYWGQGTSVTVTS
VL: B3 VL with K36R, T40A, T90A, A97D
In the case of B4, the “OD450/µg IgG” value is 16.8 OD450/µg IgG with claudin 18.2 (CLDN18.2) [1] and 2.22 OD450/µg IgG in the experiment with claudin 18.1 (CLDN18.1) [3]. For the same molecule, the MFI with claudin 18.2 (CLDN18.2) [2] was determined as 58300; with claudin 18.1 (CLDN18.1) [4] it was 6310.

B5: hybridoma clone 1-H16-A (antibody, V domains shown)
VH: B3 VH with N6E, H35Y, Y50F, Y60C, M64V, F99I, V100A, S104A
VL: B3 VL with K18R, Q35L, S83T, T90A, A97D, S99F
Consider B5, for which the “OD450/µg IgG” value with claudin 18.2 (CLDN18.2) [1] stood at 14.2 OD450/µg IgG; in the experiment with claudin 18.1 (CLDN18.1) [3], 1.05 OD450/µg IgG. In addition, the MFI with claudin 18.2 (CLDN18.2) [2] turned out to be 121000; with claudin 18.1 (CLDN18.1) [4] it was 28300.

B6: hybridoma clone 7-G17-A (antibody, V domains shown)
VH: B4 VH with A24V, H35Y, I48V, S57T, K77N, T83M, T117S
VL: B3 VL with A15P, L30F, K36R, T40A, T90A, A97D, S99F
Regarding B6, the “OD450/µg IgG” value was found to be 30.8 OD450/µg IgG in the experiment with claudin 18.2 (CLDN18.2) [1] and 6.7 OD450/µg IgG with claudin 18.1 (CLDN18.1) [3]. In addition, the MFI in the experiment with claudin 18.2 (CLDN18.2) [2] was found to be 136000; in the experiment with claudin 18.1 (CLDN18.1) [4] it was 12900.

B7: chimeric Ab 6-M11-A (antibody, V domains shown)
VH: B3 VH with N6E, L11S, S56N, I58F, A61T, M64V, S85G, V100T, S104A, M105L
VL: B3 VL with I54L
Regarding B7, the 50% effective concentration (EC50) with claudin 18.2 (CLDN18.2) [5] came to 0.026 µg/mL; with claudin 18.2 (CLDN18.2) [6] it was 0.098 µg/mL.

B8: hybridoma clone 6-M11-A (antibody, V domains shown)
VH: B3 VH with N6E, L11S, S56N, I58F, A61T, M64V, S85G, V100T, S104A, M105L
VL: B3 VL with I54L
For B8, the “OD450/µg IgG” value worked out at 11.4 OD450/µg IgG with claudin 18.2 (CLDN18.2) [1] and 1.55 OD450/µg IgG in the experiment with claudin 18.1 (CLDN18.1) [3]. The MFI worked out at 60500 with claudin 18.2 (CLDN18.2) [2] and 8970 in the experiment with claudin 18.1 (CLDN18.1) [4].

B9: chimeric Ab 2-D22-A (antibody, V domains shown)
VH: B4 VH
VL: B3 VL with K36R, T40A, T90A, A97D
Consider B9, for which the EC50 with claudin 18.2 (CLDN18.2) [5] came to 0.051 µg/mL; with claudin 18.2 (CLDN18.2) [6] it was 0.065 µg/mL.

B10: hybridoma clone 9-N14-A (antibody, V domains shown)
VH: B4 VH with H35Y, I48L, S56N, S57N, M70I, K77N, T83M, T115I, T117S
VL: B3 VL with T90A, A97D, S99I, E111G
As for B10, the “OD450/µg IgG” value with claudin 18.2 (CLDN18.2) [1] is 34.4 OD450/µg IgG; with claudin 18.1 (CLDN18.1) [3], 3.14 OD450/µg IgG. For the same molecule, the values for the MFI with claudin 18.2 (CLDN18.2) [2] and in the experiment with claudin 18.1 (CLDN18.1) [4] were 64000 and 10600, respectively.

B11: chimeric Ab 7-A21-A (antibody, V domains shown)
VH: B4 VH with H35Y, I48L, S56N, S57T, M70I, K77N, T83M, T117S
VL: B3 VL with T90A, A97D, S99I, E111G
With B11, the EC50 is 0.134 µg/mL in the experiment with claudin 18.2 (CLDN18.2) [5] and 0.23 µg/mL with claudin 18.2 (CLDN18.2) [6].

B12: chimeric Ab 7-E20-A (antibody, V domains shown)
VH: B3 VH with N6E, Y59H, A61V, V100A, S104T, M105L
VL: B3 VL with L30F, S32T, A97G
With B12, the figures for the EC50 in the experiment with claudin 18.2 (CLDN18.2) [5] and in the experiment with claudin 18.2 (CLDN18.2) [6] were 0.05 µg/mL and 0.198 µg/mL, respectively.

B13: chimeric Ab 9-C6-A (antibody, V domains shown)
VH: B3 VH with N6E
VL: B3 VL with M21L, G47R, S83N
As to B13, the EC50 was found to be 0.032 µg/mL in the experiment with claudin 18.2 (CLDN18.2) [5] and 0.491 µg/mL in the experiment with claudin 18.2 (CLDN18.2) [6].

B14: hybridoma clone 1-M5-A (antibody, V domains shown)
VH: EVQLVESGGALVKSGGSLRLSCAASGFTFSNNAMSWIRQTPEKRLEWVATIIIGGTYTYYPDSVKGRFTISRDNAKNTLYLQMSSLRSEDTAFYYCARQVYGNSFAYWGQGTLVSVSA
VL: B3 VL with T90A, A97N, S99F, L102F, A106S, L112I
Regarding B14, the results for the “OD450/µg IgG” value with claudin 18.2 (CLDN18.2) [1] and with claudin 18.1 (CLDN18.1) [3] were 21.1 OD450/µg IgG and 1.11 OD450/µg IgG, respectively. Also, the MFI in the experiment with claudin 18.2 (CLDN18.2) [2] turned out to be 59200; in the experiment with claudin 18.1 (CLDN18.1) [4], 7950.

B15: chimeric Ab 5-J22-A (antibody, V domains shown)
VH: B3 VH with N6E, Y50H, S56N, T57I, Y59H, M64L, V100A, S104T
VL: B3 VL with Y100F
notes: also called 5-22-A
Regarding B15, the EC50 with claudin 18.2 (CLDN18.2) [5] was 0.023 µg/mL; with claudin 18.2 (CLDN18.2) [6], 0.065 µg/mL.

B16: chimeric Ab 7-B15-A (antibody, V domains shown)
VH: B3 VH with N6E, V48I, Y50H, S104A, M105L
VL: B3 VL with S22N, A97G
B16: the figures for the EC50 with claudin 18.2 (CLDN18.2) [5] and with claudin 18.2 (CLDN18.2) [6] were 0.032 µg/mL and 0.066 µg/mL, respectively.

B17: chimeric Ab 10-K12-A (antibody, V domains shown)
VH: B4 VH with H35F, I48V, A49G, S57N, M70I, K77N, T83M, T117S
VL: B3 VL with T90A, V91I, A97D, S99F
As to B17, the EC50 came to 0.075 µg/mL in the experiment with claudin 18.2 (CLDN18.2) [5] and 0.05 µg/mL with claudin 18.2 (CLDN18.2) [6].

B18: hybridoma clone 10-P2-A (antibody, V domains shown)
VH: EVQLQQSGPALVKPGASVKMSCKASGYSFTGYNIHWVKQSHGKSLEWIGYIDPNNGVTYSNQKFKGKATLTVDKSSSTAYMQLNSLTSEDSAVYYCARPYYGNSFDYWGQGTTLTVSS
VL: DIVMTQSPSSLTVTAGEKVTMSCKSSQSLLNSGNLRNYLTWYQQKPGQPPKLLIYWASTRESGVPDRFTGSGSGTDFTLTINSVQAEDLALYFCQDGYFYPFPFGSGTKLVIK
Regarding B18, the “OD450/µg IgG” value was 4.71 OD450/µg IgG with claudin 18.2 (CLDN18.2) [1] and 0.34 OD450/µg IgG with claudin 18.1 (CLDN18.1) [3]. The MFI with claudin 18.2 (CLDN18.2) [2] is 58900; in the experiment with claudin 18.1 (CLDN18.1) [4] it was 10900.
